From patent US20210115144A1 (Dana-Farber, published 2021)

What was measured:
[1] = target: T1, human HHLA2-mIgG2a fusion protein (human; mouse, UniProt Q9UM44 23-344, limits assumed); experiment: cell microarray, HHLA2-mIgG2a on fixed transfected HEK293 cells, AF647 anti-mouse IgG detection
T1 construct: also called hHHLA2-mIgG2a; HHLA2-Fc
T1 sequence: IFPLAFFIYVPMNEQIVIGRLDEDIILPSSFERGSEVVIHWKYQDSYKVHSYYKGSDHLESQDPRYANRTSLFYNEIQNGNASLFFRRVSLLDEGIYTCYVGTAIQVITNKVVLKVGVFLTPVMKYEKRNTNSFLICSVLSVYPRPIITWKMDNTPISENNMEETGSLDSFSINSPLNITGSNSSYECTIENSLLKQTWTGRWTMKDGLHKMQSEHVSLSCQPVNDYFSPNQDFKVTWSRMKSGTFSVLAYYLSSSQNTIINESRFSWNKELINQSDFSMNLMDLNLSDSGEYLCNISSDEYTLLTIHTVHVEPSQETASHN
Description: Human HHLA2-mIgG2a fusion protein was added to slides of fixed, transfected HEK293 cell slides at a 20 ug/ml concentration, and the protein was detected with an AF647 labeled anti-mouse IgG detection antibody. Two replicate slides were screened for each of the 13 slide sets. Fluorescent images were analyzed and quantitated (for transfection efficiency) using ImageQuant software (GE). A protein ‘hit’ was defined as duplicate spots showing a raised signal compared to background levels. This was achieved by visual inspection using the images gridded on the ImageQuant software.
Addition of the AF647 labeled anti-mouse IgG detection antibody alone in the absence of HHLA2-mIgG2a produced no signal. The selectivity of HHLA2 binding to KIR3DL3 was evaluated using a panel of 14 KIR receptors arrayed on slides.

[2] = target: T2, human HHLA2 expressed on transfected cells (300.19 mouse pre-B cells; CHO cells) (human, UniProt Q9UM44 23-414); experiment: flow cytometry, mAb titrated on HHLA2-transfected 300.19 pre-B cells, PE goat anti-mouse IgG
T2 construct: also called B7-H7; B7H7
T2 sequence: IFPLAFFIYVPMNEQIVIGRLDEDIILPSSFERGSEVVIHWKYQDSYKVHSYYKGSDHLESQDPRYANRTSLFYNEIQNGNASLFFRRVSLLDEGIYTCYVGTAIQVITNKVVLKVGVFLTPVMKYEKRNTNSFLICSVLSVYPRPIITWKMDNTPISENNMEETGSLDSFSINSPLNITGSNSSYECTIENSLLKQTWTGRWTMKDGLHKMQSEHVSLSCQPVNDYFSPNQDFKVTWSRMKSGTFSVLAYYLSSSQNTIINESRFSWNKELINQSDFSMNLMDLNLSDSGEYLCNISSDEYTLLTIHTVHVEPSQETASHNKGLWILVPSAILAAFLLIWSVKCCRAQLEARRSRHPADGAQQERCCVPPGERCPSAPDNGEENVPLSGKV
Description: (§1) HHLA2 mAb cell binding and receptor blockade experiments were then performed. […] HHLA2 mAb binding to transfected 300.19 cells was detected with PE-labeled goat anti-mouse IgG (H+L). For HHLA2 mAb blocking experiments different concentration of HHLA2 mAbs were pre-incubated with 4 ug/ml of HHLA2-mIgG2a at a 1:1 ratio for 30 minutes and added to either TMIGD2 or KIR3DL3 transfected 293T cells and incubated for 30 minutes at 4° C. HHLA2-mIgG2a binding to TMIGD2 or KIR3DL3 transfected 293T cells was detected with a PE labeled Fab2 goat anti-mIgG2a antibody. EC50 and IC50 analyses were conducted using Graph Pad Prism. It was shown that HHLA2 mAb clone 2C4 has desired properties of complete KIR3DL3 blockade and partial TMIGD2 blockade (Table 6).

[3] = target: T1, human HHLA2-mIgG2a fusion protein; experiment: flow cytometry, mAb pre-incubated with 4 ug/ml HHLA2-mIgG2a; blockade of its binding to TMIGD2-transfected 293T cells
Description: as §1

[4] = target: T2, human HHLA2 expressed on transfected …; experiment: flow cytometry, mAb on HHLA2-transfected 300.19 mouse pre-B cells
[5] = target: T1, human HHLA2-mIgG2a fusion protein; experiment: flow cytometry, mAb pre-incubated with 4 ug/ml HHLA2-mIgG2a; blockade of its binding to KIR3DL3-transfected 293T cells
Description: as §1

[6] = target: T2, human HHLA2 expressed on transfected …; experiment: flow cytometry, mAb titrated on HHLA2-transfected 300.19 pre-B cells, PE goat anti-mouse IgG; remark: listed apart in the source
Description: (§2) Binding of different HHLA2 mAbs to human and cynomolgus monkey HHLA2 was also tested and EC50 binding analysis was conducted (FIGS. 13A and 13B). […] HHLA2 mAb binding to transfected 300.19 cells was detected with PE-labeled goat anti-mouse IgG (H+L). EC50 analysis was conducted using Graph Pad Prism.

[7] = target: T1, human HHLA2-mIgG2a fusion protein; experiment: flow cytometry, mAb pre-incubated with 4 ug/ml HHLA2-mIgG2a; blockade of its binding to KIR3DL3-transfected 300.19 pre-B cells
Description: (§3) HHLA2 mAb binding to transfected 300.19 cells was detected with PE-labeled goat anti-mouse IgG (H+L). […] EC50 and IC50 analyses were conducted using Graph Pad Prism. It was shown that HHLA2 mAb clone 2C4 has desired properties of complete KIR3DL3 blockade and partial TMIGD2 blockade (Table 7).

[8] = target: T1, human HHLA2-mIgG2a fusion protein; experiment: flow cytometry, mAb pre-incubated with 4 ug/ml HHLA2-mIgG2a; blockade of its binding to TMIGD2-transfected 300.19 pre-B cells
Description: as §3

[9] = target: T3, cynomolgus monkey HHLA2 expressed on transfected 300.19 pre-B cells (cynomolgus monkey); experiment: flow cytometry, mAb titrated on cynomolgus monkey HHLA2-transfected 300.19 pre-B cells
T3 construct: whole, on cells
Description: FIGS. 13A and 13B show HHLA2 mAb binding to human and cynomolgus monkey HHLA2. […] HHLA2 mAb binding to transfected 300.19 cells was detected with a PE-labeled goat anti-mouse IgG (H+L) by flow cytometry.
as §2

[10] = target: T2, human HHLA2 expressed on transfected …; experiment: flow cytometry, mAb titrated on human HHLA2-transfected 300.19 pre-B cells
Description: as §2

Binder | binding result [1] | EC50 [2] | IC50 [3] | EC50 [4] | IC50 [5] | other results
KIR2DS5 (receptor, human, UniProt Q14953 22-304, looked up, whole, on cells) HEGFRRKPSLLAHPGPLVKSEETVILQCWSDVMFEHFLLHREGTFNHTLRLIGEHIDGVSKGNFSIGRMTQDLAGTYRCYGSVTHSPYQLSAPSDPLDIVITGLYEKPSLSAQPGPTVLAGESVTLSCSSRSSYDMYHLSREGEAHERRLPAGPKVNRTFQADFPLDPATHGGTYRCFGSFRDSPYEWSKSSDPLLVSVTGNSSNSWPSPTEPSSETGNPRHLHVLIGTSVVKLPFTILLFFLLHRWCSNKKNASVMDQGPAGNRTVNREDSDEQDHQEVSYA | no binding (tested: 20 ug/ml) | – | – | – | – | –
KIR2DS2 (receptor, human, UniProt P43631 22-304, looked up, whole, on cells) HEGVHRKPSLLAHPGPLVKSEETVILQCWSDVRFEHFLLHREGKYKDTLHLIGEHHDGVSKANFSIGPMMQDLAGTYRCYGSVTHSPYQLSAPSDPLDIVITGLYEKPSLSAQPGPTVLAGESVTLSCSSRSSYDMYHLSREGEAHERRFSAGPKVNGTFQADFPLGPATHGGTYRCFGSFRDSPYEWSNSSDPLLVSVTGNPSNSWPSPTEPSSKTGNPRHLHVLIGTSVVKIPFTILLFFLLHRWCSNKKNAAVMDQEPAGNRTVNSEDSDEQDHQEVSYA | no binding (tested: 20 ug/ml) | – | – | – | – | –
anti-HHLA2 monoclonal antibody 1C8 (antibody, IgG2a, V domains shown, also called 499.5.1C8.9.12.2; MHC2564) VH: EVQLQQSGAELVQPGASVKLSCTASGFNIKDTYMHWVKQRPEQGLEWIGRIDPANGKTIFDPKFQVKATITADTSSNTVYLHLSSLTSEDTAIYYCAWLLPYYFDYWGQGTTLTVSS VL: EIVLTQSPAVMAASPGEKVTITCSVSSSISSSNLHWYQQKSGTSPKLWIYGTSNLASGVPVRFSGSGSGTSYSLTISSMEAEDAATYYCQKWSHYPLTFGAGTKLELK | – | 0.63 µg/mL | 1.65 µg/mL | 0.63 µg/mL | 1.15 µg/mL | –
anti-HHLA2 monoclonal antibody 2G2 (antibody, IgG1, V domains shown, also called 499.5.2G2.13.3.10; MHC2561) VH: EVMLVESGGGLVKPGGSLKLSCAVSGLTFSSYAMSWVRQTPEKRLEWVATISSGGSHTYYPDSVKGRFIISRDNAKNTLYLQMNSLRSEDTAMYYCTRLGRAFDYWGQGTTLTVSS VL: DIVMTQSHKFMSTSVGDRVSITCKASQDVSTAVAWYQQKPGQSPKVLIYWASTRHTGVPDRFTGSGSGTDFTLTISSVQAEDLALYYCQQDYSTPWTFGGGTKLEIK | – | 0.21 µg/mL | 0.85 µg/mL | 0.21 µg/mL | 0.53 µg/mL | –
KIR2DS1 (receptor, human, UniProt Q14954 22-304, looked up, whole, on cells) HEGVHRKPSLLAHPGRLVKSEETVILQCWSDVMFEHFLLHREGMFNDTLRLIGEHHDGVSKANFSISRMKQDLAGTYRCYGSVTHSPYQLSAPSDPLDIVIIGLYEKPSLSAQPGPTVLAGENVTLSCSSRSSYDMYHLSREGEAHERRLPAGTKVNGTFQANFPLGPATHGGTYRCFGSFRDSPYEWSKSSDPLLVSVTGNPSNSWPSPTEPSSETGNPRHLHVLIGTSVVKIPFTILLFFLLHRWCSDKKNAAVMDQEPAGNRTVNSEDSDEQDHQEVSYA | no binding (tested: 20 ug/ml) | – | – | – | – | –
KIR2DS3 (receptor, human, UniProt Q14952 22-304, looked up, whole, on cells) HEGFRRKPSLLAHPGRLVKSEETVILQCWSDVMFEHFLLHREGTFNDTLRLIGEHIDGVSKANFSIGRMRQDLAGTYRCYGSVPHSPYQFSAPSDPLDIVITGLYEKPSLSAQPGPTVLAGESVTLSCSSWSSYDMYHLSTEGEAHERRFSAGPKVNGTFQADFPLGPATQGGTYRCFGSFHDSPYEWSKSSDPLLVSVTGNPSNSWPSPTEPSSKTGNPRHLHVLIGTSVVKLPFTILLFFLLHRWCSDKKNASVMDQGPAGNRTVNREDSDEQDHQEVSYA | no binding (tested: 20 ug/ml) | – | – | – | – | –
anti-HHLA2 monoclonal antibody 4D1 (antibody, IgG1, V domains shown, also called 499.5.4D1.5.16; MHC2563) VH: QVQLQQSGAELVRPGVSVKISCKGSGYTFTDYAMHWVKQSHAKSLEWIGSISTYYGDTNYNQKFKGKATMTVDKSSSTAYMELARLTSEDSAIYYCARGNYDDWYFNVWGAGTTVTVSS VL: DIQMTQSPSSLSASLGERVSLTCRASQDISGYLSWLQQKPDGTIKRLIYSTSTLDSGVPKRFSGSRSGSDYSLTISSLESEDFADYYCLQYASSPYTFGGGAKLEIK | – | 0.44 µg/mL | 0.56 µg/mL | 0.44 µg/mL | 0.68 µg/mL | –
anti-HHLA2 monoclonal antibody 2C4 (antibody, IgG1, V domains shown, also called 499.5.2C4.E6.6.8.1; MHC2562) VH: EVHLQQSGPELEKPGVSVKISCKASGFSFTDYNMNWVKQSSGKSLEWIGNIDPYYGRINYNQKFKGKATLSVDKSSSTAYMHLKSLTSEDSAVYYCATGAYTSGYSWFAYWGQGTLVTVSA VL: ENVLTQSPGIMAASLGEKVTMTCSASSSVSSSYLHWYQQRSGASPKPLIHRTSNLASGVPARFSGSGSGTSYSLTISSVEAEDDATYYCQQWSGYPFTFGSGTKLEIK | – | 0.24 µg/mL | 28.2 µg/mL | 0.24 µg/mL | 0.52 µg/mL | EC50 [6]: 0.29 µg/mL; IC50 [7]: 0.97 µg/mL; IC50 [8]: 7.3 µg/mL; EC50 [9]: 0.47 µg/mL; EC50 [10]: 0.29 µg/mL
anti-HHLA2 monoclonal antibody 6D10 (antibody, IgG1, V domains shown, also called 6DI0; 499.5.6D10.11.11.7) VH: EVQLVETGGGLVQPKGSLKLSCAASGFTFNTNVMNWVRQAPGKGLEWVARIRTKTNNYATYYADSVKDRFTIFRDDSQSILYLQMNNLKTEDTAMYYCVGAMDYWGQGTSVTVSS VL: DIVLTQSPASLAVSLGQRATISCRASESVDNYGISFMHWYQQKPGQPPKLLIYRASNLKSGIPARFSGSGSRTDFTLTINPVETGDVATYYCQQSSKDPPTFGTGTKLELK | – | 22.5 µg/mL | 11.7 µg/mL | 22.5 µg/mL | 7 µg/mL | –
KIR2DL3 (receptor, human, UniProt P43628 22-341, looked up, whole, on cells) HEGVHRKPSLLAHPGPLVKSEETVILQCWSDVRFQHFLLHREGKFKDTLHLIGEHHDGVSKANFSIGPMMQDLAGTYRCYGSVTHSPYQLSAPSDPLDIVITGLYEKPSLSAQPGPTVLAGESVTLSCSSRSSYDMYHLSREGEAHERRFSAGPKVNGTFQADFPLGPATHGGTYRCFGSFRDSPYEWSNSSDPLLVSVTGNPSNSWPSPTEPSSETGNPRHLHVLIGTSVVIILFILLLFFLLHRWCCNKKNAVVMDQEPAGNRTVNREDSDEQDPQEVTYAQLNHCVFTQRKITRPSQRPKTPPTDIIVYTELPNAEP | no binding (tested: 20 ug/ml) | – | – | – | – | –
